From patent US20240288416

Test system: green fluorescent protein (GFP) carrying an ssrA tag at the C-terminus

## unfoldase ClpX
  controlled translocation through the opened ClpP-nanopore (ionic current traces, ATP present): ClpX-assisted transport of GFP across opened ClpP-nanopore in the presence of ATP
